Measurements: patent publication US20200362018

T1: S. cerevisiae (Yeast) 20S proteasome, FLAG-tagged (Pre1), P22141
T1 sequence (P22141 1-198, looked up): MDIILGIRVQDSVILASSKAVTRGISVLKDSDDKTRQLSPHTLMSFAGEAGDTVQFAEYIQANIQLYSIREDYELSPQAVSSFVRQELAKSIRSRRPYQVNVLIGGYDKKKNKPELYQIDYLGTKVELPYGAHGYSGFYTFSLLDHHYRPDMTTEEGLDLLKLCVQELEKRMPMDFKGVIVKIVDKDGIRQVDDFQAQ

T2: T. acidophilum (Archaea) 20S proteasome, P25156
T2 chain 1: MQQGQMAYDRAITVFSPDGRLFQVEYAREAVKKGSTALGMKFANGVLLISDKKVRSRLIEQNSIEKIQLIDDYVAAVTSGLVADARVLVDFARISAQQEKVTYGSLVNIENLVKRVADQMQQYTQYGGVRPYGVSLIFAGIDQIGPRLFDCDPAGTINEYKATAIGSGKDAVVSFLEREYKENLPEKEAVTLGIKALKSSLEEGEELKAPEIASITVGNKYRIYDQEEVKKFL
T2 chain 2: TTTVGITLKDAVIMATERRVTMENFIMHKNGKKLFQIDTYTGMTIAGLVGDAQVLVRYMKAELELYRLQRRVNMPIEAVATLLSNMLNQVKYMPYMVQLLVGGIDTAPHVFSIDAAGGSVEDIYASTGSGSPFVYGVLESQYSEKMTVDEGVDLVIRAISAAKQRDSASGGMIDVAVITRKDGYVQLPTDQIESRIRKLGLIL

B1: human CBR3 (recombinant, His tag removed) (protein)
chain: MSSCSRVALVTGANRGIGLAIARELCRQFSGDVVLTARDVARGQAAVQQLQAEGLSPRFHQLDIDDLQSIRALRDFLRKEYGGLNVLVNNAAVAFKSDDPMPFDIKAEMTLKTNFFATRNMCNELLPIMKPHGRVVNISSLQCLRAFENCSEDLQERFHSETLTEGDLVDLMKKFVEDTKNEVHEREGWPNSPYGVSKLGVTVLSRILARRLDEKRKADRILVNACCPGPVKTDMDGKDSIRTVEEGAETPVYLALLPPDATEPQGQLVHDKVVQNW
B2: human NQO2 (recombinant, His-TEV fragment removed) (protein)
chain: MAGKKVLIVYAHQEPKSFNGSLKNVAVDELSRQGCTVTVSDLYAMNLEPRATDKDITGTLSNPEVFNYGVETHEAYKQRSLASDITDEQKKVREADLVIFQFPLYWFSVPAILKGWMDRVLCQGFAFDIPGFYDSGLLQGKLALLSVTTGGTAEMYTKTGVNGDSRYFLWPLQHGTLHFCGFKVLAPQISFAPEIASEEERKGMVAAWSQRLQTIWKEEPIPCTAHWHFGQ
B3: human PGDH with a C-terminal 6His tag (protein)
chain: MHVNGKVALVTGAAQGIGRAFAEALLLKGAKVALVDWNLEAGVQCKAALDEQFEPQKTLFIQCDVADQQQLRDTFRKVVDHFGRLDILVNNAGVNNEKNWEKTLQINLVSVISGTYLGLDYMSKQNGGEGGIIINMSSLAGLMPVAQQPVYCASKHGIVGFTRSAALAANLMNSGVRLNAICPGFVNTAILESIEKEENMGQYIEYKDHIKDMIKYYGILDPPLIANGLITLIEDDALNGAIMKITTSKGIHFQDYDTTPFQAKTQ
B4: human RBBP9 with a C-terminal 6His tag (protein)
chain: MASPSKAVIVPGNGGGDVTTHGWYGWVKKELEKIPGFQCLAKNMPDPITARESIWLPFMETELHCDEKTIIIGHSSGAIAAMRYAETHRVYAIVLVSAYTSDLGDENERASGYFTRPWQWEKIKANCPYIVQFGSTDDPFLPWKEQQEVADRLETKLHKFTDCGHFQNTEFHELITVVKSLLKVPA

How the values were obtained:
[1] = target: R. norvegicus (Mammalian) 20S proteasome purified from rat liver
[2] = target: T1, S. cerevisiae (Yeast) 20S proteasome, …
[3] = target: T2, T. acidophilum (Archaea) 20S …
[4] = target: 20S proteasome (source not stated for the experiment)

| Protein | in vitro degradation of oxidized calmodulin by purified mammalian 20S proteasomes [1] | in vitro degradation of α-synuclein by purified mammalian 20S proteasomes [1] | degradation of α-synuclein by the 20S proteasome, SDS-PAGE time course [2] | degradation of α-synuclein by the 20S proteasome, SDS-PAGE time course [3] | time-dependent degradation of α-synuclein by the 20S proteasome, SDS-PAGE with image analysis [4] |
| --- | --- | --- | --- | --- | --- |
| B1 | OxCam degradation was inhibited by all the candidates | the majority of the CCRs successfully inhibited the degradation of α-synuclein, with the exception of RBBP9 and HRas | Human CBR3 inhibited 20S proteasomes from all tested species. | Human CBR3 inhibited 20S proteasomes from all tested species. | – |
| B2 | OxCam degradation was inhibited by all the candidates | the majority of the CCRs successfully inhibited the degradation of α-synuclein, with the exception of RBBP9 and HRas | – | – | In the presence of NQO2, CBR3, PGDH, NRas, KRas and RhoA, however, there was a marked decrease in the degradation rate. |
| B3 | OxCam degradation was inhibited by all the candidates | the majority of the CCRs successfully inhibited the degradation of α-synuclein, with the exception of RBBP9 and HRas | – | – | – |
| B4 | OxCam degradation was inhibited by all the candidates | – | – | – | – |
